Experimental data taken from article PMC4858977.

Experiments:
Test in all cases: MITOMI
RXRα = molecular target: T1, RXRα (UniProt P28700); conditions: On-chip MITOMI, 1 h equilibration; buffer, salt, pH and temperature not in the material (as ref. 23)
T1 sequence: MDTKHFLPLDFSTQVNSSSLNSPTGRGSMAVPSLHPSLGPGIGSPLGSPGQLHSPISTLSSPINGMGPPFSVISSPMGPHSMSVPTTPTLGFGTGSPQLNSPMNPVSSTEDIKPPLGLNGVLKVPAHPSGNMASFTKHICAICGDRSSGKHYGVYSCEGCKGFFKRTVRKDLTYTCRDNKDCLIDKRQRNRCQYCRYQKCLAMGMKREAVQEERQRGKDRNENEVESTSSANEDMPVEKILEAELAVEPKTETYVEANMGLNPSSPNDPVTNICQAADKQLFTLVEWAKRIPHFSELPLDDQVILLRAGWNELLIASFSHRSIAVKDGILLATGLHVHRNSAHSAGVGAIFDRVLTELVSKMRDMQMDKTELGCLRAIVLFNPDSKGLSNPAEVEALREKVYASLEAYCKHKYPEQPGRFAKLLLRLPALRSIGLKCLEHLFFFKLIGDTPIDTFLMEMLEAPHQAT

PPARγ = molecular target: T2, PPARγ (UniProt P37238); conditions: On-chip MITOMI, 1 h equilibration; buffer, salt, pH and temperature not in the material (as ref. 23)
T2 sequence: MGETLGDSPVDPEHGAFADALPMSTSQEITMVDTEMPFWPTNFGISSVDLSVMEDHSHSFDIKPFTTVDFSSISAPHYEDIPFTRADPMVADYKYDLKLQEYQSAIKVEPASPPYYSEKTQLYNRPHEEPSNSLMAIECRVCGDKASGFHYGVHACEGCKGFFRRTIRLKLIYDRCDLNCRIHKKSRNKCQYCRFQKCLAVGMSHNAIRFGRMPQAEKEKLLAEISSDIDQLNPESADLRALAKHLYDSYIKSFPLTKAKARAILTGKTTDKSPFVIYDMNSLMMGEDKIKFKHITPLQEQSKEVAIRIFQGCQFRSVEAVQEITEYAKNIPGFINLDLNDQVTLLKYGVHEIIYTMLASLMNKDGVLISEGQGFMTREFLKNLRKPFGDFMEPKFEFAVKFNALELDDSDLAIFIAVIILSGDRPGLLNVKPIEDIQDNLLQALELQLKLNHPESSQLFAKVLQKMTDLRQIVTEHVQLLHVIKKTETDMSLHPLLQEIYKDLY

[1] = molecular target: PPARγ;RXRα (Mus musculus?;Mus musculus?) (UniProt P37238+P28700); conditions: KDoD from cooperative model; On-chip MITOMI, 1 h equilibration; buffer, salt, pH and temperature not in the material (as ref. 23)

Sequence | Ka (RXRα) [M⁻¹] | also measured
AAACTAGGTCGAAGGTCAAA (double strand) [PPRE A11G] | 5.54e+06 | –
AAGCTAGGTCAAAGGTCAAA (double strand) [PPRE A3G] | 5.27e+07 | –
AAACTAGGTAAAAGGTCAAA (double strand) [PPRE C10A] | 3.42e+06 | –
AAACTAGGTCAAAGGGCAAA (double strand) [PPRE T16G] | 1.33e+07 | –
AAACTAGGTTAAAGGTCAAA (double strand) [PPRE C10T] | 1.7e+07 | –
AAACTAGATCAAAGGTCAAA (double strand) [PPRE G8A] | 4.91e+06 | –
AAACTAGGTCAAAGTTCAAA (double strand) [PPRE G15T] | 4.44e+07 | –
AAACTAGGTCAACGGTCAAA (double strand) [PPRE A13C] | 1.05e+06 | –
AAACTAGGTCAAAGATCAAA (double strand) [PPRE G15A] | 2.73e+06 | –
AAACTAGGTCAAAGGACAAA (double strand) [PPRE T16A] | 906000 | –
AAAGTAGGTCAAAGGTCAAA (double strand) [PPRE C4G] | 1.38e+08 | –
ACACTAGGTCAAAGGTCAAA (double strand) [PPRE A2C] | 4.33e+07 | –
AAACAAGGTCAAAGGTCAAA (double strand) [PPRE T5A] | 7.87e+07 | –
AAACTAGGGCAAAGGTCAAA (double strand) [PPRE T9G] | 9.19e+06 | –
AAATTAGGTCAAAGGTCAAA (double strand) [PPRE C4T] | 2.59e+08 | –
AAACGAGGTCAAAGGTCAAA (double strand) [PPRE T5G] | 9.82e+07 | –
AAACTAGGTCAAGGGTCAAA (double strand) [PPRE A13G] | 1.61e+07 | –
AACCTAGGTCAAAGGTCAAA (double strand) [PPRE A3C] | 1.25e+08 | –
AAACTAGGTCAAAGGTCAGA (double strand) [PPRE A19G] | 1.1e+07 | –

Sequence | Ka (RXRα) [M⁻¹] | also measured
AAACTAGGTCAAAGGTAAAA (double strand) [PPRE C17A] | 4.39e+06 | –
AAACTACGTCAAAGGTCAAA (double strand) [PPRE G7C] | 6.66e+06 | –
AAACTAGGTCAAAGGCCAAA (double strand) [PPRE T16C] | 3.59e+06 | –
AAACTATGTCAAAGGTCAAA (double strand) [PPRE G7T] | 9.75e+06 | –
AATCTAGGTCAAAGGTCAAA (double strand) [PPRE A3T] | 1.98e+08 | –
AAACTAGGTCAAAGCTCAAA (double strand) [PPRE G15C] | 218000 | –
AAACTAGGTCAAAGGTCAAA (double strand) [PPRE] | 1.98e+08 | Ka (PPARγ): 2.08e+06 M⁻¹; Ka [1]: 1.46e+22 M-2
AAACTGGGTCAAAGGTCAAA (double strand) [PPRE A6G] | 1.73e+08 | –
AAACTAGCTCAAAGGTCAAA (double strand) [PPRE G8C] | 980000 | –
AAACTAGGTCCAAGGTCAAA (double strand) [PPRE A11C] | 368000 | –
AAACTAAGTCAAAGGTCAAA (double strand) [PPRE G7A] | 7.36e+06 | –
AAACTAGGTGAAAGGTCAAA (double strand) [PPRE C10G] | 2.66e+07 | –
CAACTAGGTCAAAGGTCAAA (double strand) [PPRE A1C] | 1.17e+08 | –
AAACTAGGTCAAAGGTCATA (double strand) [PPRE A19T] | 3.78e+07 | –
AAACTAGGTCAGAGGTCAAA (double strand) [PPRE A12G] | 2.69e+07 | –
GAACTAGGTCAAAGGTCAAA (double strand) [PPRE A1G] | 1e+08 | –
ATACTAGGTCAAAGGTCAAA (double strand) [PPRE A2T] | 1.45e+08 | –
AAACTAGGTCACAGGTCAAA (double strand) [PPRE A12C] | 7.95e+06 | –
TAACTAGGTCAAAGGTCAAA (double strand) [PPRE A1T] | 1.01e+08 | –

Sequence | Ka (RXRα) [M⁻¹] | also measured
AAACTAGGTCAAAGGTCAAG (double strand) [PPRE A20G] | 1e+09 | –
AAACTAGGTCAAACGTCAAA (double strand) [PPRE G14C] | 860000 | –
AAACTAGGTCTAAGGTCAAA (double strand) [PPRE A11T] | 802000 | –
AAACTCGGTCAAAGGTCAAA (double strand) [PPRE A6C] | 8.8e+06 | –
AAACTAGGTCAAAAGTCAAA (double strand) [PPRE G14A] | 2.41e+06 | –
AGACTAGGTCAAAGGTCAAA (double strand) [PPRE A2G] | 2.05e+08 | –
AAACTTGGTCAAAGGTCAAA (double strand) [PPRE A6T] | 4.68e+06 | –
AAACTAGGTCAAAGGTGAAA (double strand) [PPRE C17G] | 1.32e+07 | –
AAACTAGGACAAAGGTCAAA (double strand) [PPRE T9A] | 2.04e+06 | –
AAACTAGGTCAATGGTCAAA (double strand) [PPRE A13T] | 398000 | –
AAAATAGGTCAAAGGTCAAA (double strand) [PPRE C4A] | 1.64e+08 | –
AAACTAGTTCAAAGGTCAAA (double strand) [PPRE G8T] | 2.54e+07 | –
AAACCAGGTCAAAGGTCAAA (double strand) [PPRE T5C] | 3.82e+08 | –
AAACTAGGTCAAATGTCAAA (double strand) [PPRE G14T] | 5.14e+06 | –
AAACTAGGTCAAAGGTCAAT (double strand) [PPRE A20T] | 2.79e+08 | –
AAACTAGGCCAAAGGTCAAA (double strand) [PPRE T9C] | 5.86e+06 | –
AAACTAGGTCAAAGGTCACA (double strand) [PPRE A19C] | 1.22e+08 | –
AAACTAGGTCAAAGGTCAAC (double strand) [PPRE A20C] | 9.97e+08 | –
AAACTAGGTCATAGGTCAAA (double strand) [PPRE A12T] | 4.38e+07 | –
